T1: angiotensin I converting enzyme (ACE) (UniProt P12821)
T1 chain: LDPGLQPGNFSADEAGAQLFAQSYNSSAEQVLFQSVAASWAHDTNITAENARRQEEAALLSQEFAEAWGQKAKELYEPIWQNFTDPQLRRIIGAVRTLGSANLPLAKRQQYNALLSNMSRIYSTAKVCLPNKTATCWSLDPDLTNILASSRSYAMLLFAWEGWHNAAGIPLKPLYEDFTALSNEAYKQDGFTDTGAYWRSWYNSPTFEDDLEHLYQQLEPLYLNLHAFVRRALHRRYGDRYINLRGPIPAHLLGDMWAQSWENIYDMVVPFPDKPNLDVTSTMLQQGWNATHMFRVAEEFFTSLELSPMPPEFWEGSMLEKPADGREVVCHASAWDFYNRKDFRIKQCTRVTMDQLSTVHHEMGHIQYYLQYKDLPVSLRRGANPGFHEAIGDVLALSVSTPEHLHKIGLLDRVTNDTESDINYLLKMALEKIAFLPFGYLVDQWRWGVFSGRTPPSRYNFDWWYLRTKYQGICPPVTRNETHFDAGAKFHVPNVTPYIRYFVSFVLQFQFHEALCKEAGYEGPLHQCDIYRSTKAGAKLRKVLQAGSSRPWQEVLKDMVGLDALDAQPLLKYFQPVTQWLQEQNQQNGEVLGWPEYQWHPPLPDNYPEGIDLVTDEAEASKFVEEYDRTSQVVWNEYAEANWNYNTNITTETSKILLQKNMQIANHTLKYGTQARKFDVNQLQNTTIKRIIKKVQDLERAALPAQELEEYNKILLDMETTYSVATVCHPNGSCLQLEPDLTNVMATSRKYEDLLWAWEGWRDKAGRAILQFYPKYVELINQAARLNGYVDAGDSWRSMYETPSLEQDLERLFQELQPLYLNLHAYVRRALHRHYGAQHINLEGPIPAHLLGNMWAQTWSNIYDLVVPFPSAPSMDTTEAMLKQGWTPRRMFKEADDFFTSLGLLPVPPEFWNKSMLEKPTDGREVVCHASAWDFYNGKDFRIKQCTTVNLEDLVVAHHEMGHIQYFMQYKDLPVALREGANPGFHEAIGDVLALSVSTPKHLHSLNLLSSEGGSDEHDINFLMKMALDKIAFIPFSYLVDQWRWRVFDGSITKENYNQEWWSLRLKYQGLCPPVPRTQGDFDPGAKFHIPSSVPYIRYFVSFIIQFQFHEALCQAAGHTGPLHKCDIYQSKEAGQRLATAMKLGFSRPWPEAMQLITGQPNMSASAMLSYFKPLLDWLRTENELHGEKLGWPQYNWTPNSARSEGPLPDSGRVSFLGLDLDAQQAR


Target: T1, angiotensin I converting enzyme (ACE)
Assay: other, ACE inhibition
For ALNEINQFYQK [ALNEINQFYQK (CNαS2-(f81-91))], the IC50 was 26.4 µM. FALPQYLK [FALPQYLK (CNαS2-(f174-181))] was tested, and the IC50 was 4.3 µM. For NMAINPSK [NMAINPSK (CNαS2-(f25-32))], the IC50 was 60 µM. For FPQYLQY [FPQYLQY (CNαS2-(f92-98))], the IC50 was 14 µM. Binder TVY [TVY (CNαS2-(f182-184))] has an IC50 of 15 µM. FALPQY [FALPQY (CNαS2-(f174-179))] was tested, and the IC50 was 4.3 µM. ALNEINQFY [ALNEINQFY (CNαS2-(f81-89))] was tested, and the IC50 was 219 µM.

Source: US20060234942 (published 2006)
